Laboratory results published in PMC6952110, “A divergent CheW confers plasticity to nucleoid-associated chemosensory arrays” (PLoS Genetics, 2019).

Target: T1, 6His-FrzCD (M. xanthus, UniProt P43500 1-417)
T1 construct: FrzCD, cytoplasmic methyl-accepting chemotaxis protein of the Frz system, Myxococcus xanthus; also called cytoplasmic MCP of the Frz system; source: E. coli BL21(DE3); in lysate (co-purification) and purified on NiNTA resin (BLi)
T1 sequence (looked up): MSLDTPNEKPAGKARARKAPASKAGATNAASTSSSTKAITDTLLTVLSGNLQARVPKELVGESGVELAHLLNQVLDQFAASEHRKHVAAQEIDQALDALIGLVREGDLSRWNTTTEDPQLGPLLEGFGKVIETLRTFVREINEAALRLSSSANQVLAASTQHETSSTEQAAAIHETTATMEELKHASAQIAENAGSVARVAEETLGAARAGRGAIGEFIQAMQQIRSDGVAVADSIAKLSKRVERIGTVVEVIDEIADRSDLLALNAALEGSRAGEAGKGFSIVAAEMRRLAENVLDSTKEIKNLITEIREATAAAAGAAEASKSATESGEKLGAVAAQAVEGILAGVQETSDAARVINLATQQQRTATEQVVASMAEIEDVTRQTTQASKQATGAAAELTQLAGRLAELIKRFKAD
Experiment: BLI; BLItz, 25°C; 6His-tagged ligand immobilised on Ni-NTA biosensors at 4 μM; GST-FrzB as analyte at 0.2 to 20 μM; Tris HCl 50 mM pH8, NaCl 300 mM; global 1:1 fit; double reference subtraction
Conditions: both partners purified

Kd: 700 nM
B1: GST-FrzB (natural protein, M. xanthus, UniProt P43499 1-112, looked up)
chain: MDLLFFDIGATLYGTDASQVLRIDRALPEDLTLAELGLPHRGNRAIVFDTPEGEAHLKVDAVHGVRSIPVNSLRRMPPTAGAAAYAVGVCLEEARTVLLIDLVETARTQGRH
notes: FrzB, CheW-like protein of the Frz chemosensory system, Myxococcus xanthus, Uniprot P43499; also called divergent CheW; source: E. coli BL21(DE3)
